Data set [1] concerns the target NOX (NADH oxidase) (Gluconobacter thailandicus, UniProt A0ABQ0IUG6). The data set can be described thus: NOX activity: NADH/NADPH and flavin coenzyme specificity. The format is biochemical, Gluconobacter oxydans IFO 3255. The conditions noted are these: flavin 0 to 300 μM, FIG. 19. On the procedure:
The change in absorbance in the first minute was taken as an initial rate, and the activity was calculated therefrom. The experimental group without the enzyme source was used as a blank. […] The measurement was taken three consecutive times. Their mean value was taken and is shown in the figure with the standard deviation.
The concentration of flavin in the reaction solution was 0 to 300 μM, and the others were adjusted to standard conditions.
The Km value for the substrate was calculated by measuring the activity with a variety of substrate concentrations and drawing a Lineweaver-Burk plot of the results.

The test system of data set [2] is NADH oxidase activity in cell free extract of G. oxydans IFO 3255 sldA:Kmr mutant strain. The data set can be described thus: NADH oxidation activity in acetobacterium cell-free extract. The class given is biochemical, Gluconobacter oxydans IFO 3255 sldA:Kmr. Particulars: pH 8.0, 0.03 mM FAD. An excerpt: The group without the extract was used as a control.
Data set [3] deals with FcDH (Gluconobacter thailandicus, UniProt A0ABQ0IZX0). The data set can be described thus: NAD and NADP specificity of FcDH. The format is biochemical, Gluconobacter oxydans IFO 3255. Particulars: data not shown. Here is the method: The measurement was started when NAD was added. The change in absorbance in the first minute was taken as the initial rate, and the activity was calculated therefrom. […] The measurement was performed consecutively three times. Their mean value was taken and is shown in the figure with the standard deviation.
Since FcDH uses NAD as a coenzyme, the availability of NAD and NADP was measured. The activity was measured by adding NAD or NADP at various concentrations under standard conditions. The Km value for each coenzyme was calculated by drawing a Lineweaver-Burk plot of the results (FIG. 14 (B)).

Substrate in data set [4]: OC[C@@H](O)[C@H](O)[C@H](O)[C@@H](O)CO
The data set can be described thus: Substrate specificity of purified FcDH (kcat, Km by Lineweaver-Burk plot). The conditions noted are these: other: purified FcDH, pH 9.5, 30.0 °C. The format is biochemical, Gluconobacter oxydans IFO 3255. Here is the method:
(§1) The measurement was started when NAD was added. […] The measurement was performed consecutively three times.
(§2) Values of kcat and Km for each substrate were obtained by measuring the initial rate of the reaction with various substrate concentrations and drawing a Lineweaver-Burk plot of the results.
(§3) Lineweaver-Burk plots of the results in (A) and (B) are shown in FIG. 12 (C) and (D), respectively. The Km and kcat values were calculated from the range in which substrate inhibition was not observed, i.e., from a straight line represented by a broken line in FIG. 12 (C) and (D).

Substrate in data set [5]: OC[C@@H](O)[C@@H](O)[C@H](O)[C@H](O)CO
Described as above. The class given is biochemical, Gluconobacter oxydans IFO 3255. The conditions noted are these: other: purified FcDH, pH 9.5, 30.0 °C. On the procedure:
as §1, §2, §3

Substrate in data set [6]: OC[C@@H](O)[C@@H](O)[C@H](O)[C@@H](O)CO
Described as above. The format is biochemical, Gluconobacter oxydans IFO 3255. The conditions noted are these: other: purified FcDH, pH 9.5, 30.0 °C. On the procedure:
as §1, §2, §3

Substrate in data set [7]: C[C@H](O)[C@@H](O)[C@@H](O)[C@H](O)CO
The data set can be described thus: purified protein, by the assay type. The conditions noted are these: other: purified FcDH, substrate; Lineweaver-Burk plot; pH 9.5; 30.0 °C.

Substrate in data set [8]: OC[C@@H](O)C(O)[C@H](O)CO
The data set can be described thus: purified protein, by the assay type. Particulars: other: purified FcDH, substrate; Lineweaver-Burk plot; pH 9.5; 30.0 °C.

Substrate in data set [9]: OC[C@@H](O)[C@H](O)[C@@H](O)CO
The data set can be described thus: purified protein, by the assay type. Particulars: other: purified FcDH, substrate; Lineweaver-Burk plot; pH 9.5; 30.0 °C.

Substrate in data set [10]: OC[C@@H](O)[C@@H](O)[C@@H](O)CO
The data set can be described thus: purified protein, by the assay type. The conditions noted are these: other: purified FcDH, substrate; Lineweaver-Burk plot; pH 9.5; 30.0 °C.

NOX (NADH oxidase), sequence (A0ABQ0IUG6 entry or part of it): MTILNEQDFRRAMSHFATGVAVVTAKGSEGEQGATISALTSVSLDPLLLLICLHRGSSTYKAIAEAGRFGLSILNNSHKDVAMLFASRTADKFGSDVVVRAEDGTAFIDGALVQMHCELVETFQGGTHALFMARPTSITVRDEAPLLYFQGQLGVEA

For the molecule `Cc1cc2nc3c(=O)[nH]c(=O)nc-3n(C[C@H](O)[C@H](O)[C@H](O)COP(=O)(O)OP(=O)(O)OC[C@H]3O[C@@H](n4cnc5c(N)ncnc54)[C@H](O)[C@@H]3O)c2cc1C` [FAD], the “NOX activation effect of flavin coenzyme” value in data set [1] is “NOX activation effect was observed”. Further, the “effect of FAD addition on NADH oxidation activity” value in data set [2] was “facilitated this activity”.
Consider `NC(=O)c1ccc[n+]([C@H]2O[C@@H](COP(=O)([O-])OP(=O)(O)OC[C@H]3O[C@@H](n4cnc5c(N)ncnc54)[C@H](OP(=O)(O)O)[C@@H]3O)[C@H](O)[C@@H]2O)c1` [NADP], for which the “FcDH activity with NADP as the coenzyme” value in data set [3] is on record as “no significant activity”.

B1: FcDH (L-fuculose-producing L-fucitol dehydrogenase) (Gluconobacter thailandicus NBRC 3257) (protein)
chain: MYMEKLRLDGRTAVVTGGAQNIGLACVTALAEAGARVVIADLDEAMAAQSAEELCAEGLDVRSIRMDVTSMENVQAAIKTLHEQEGHLDILVACAGICISEVKAEDMTEGQWLKQVDINLNGMFRCCQAVGRIMLEQKKGAIVAIGSMSGQIVNRPQQQAAYNASKAGVHQYIRSLAAEWAPYGIRANAVAPTYIETTLTRFGMEKPELYDAWIAGTPMGRVGQPDEVASVVHFLASDAASLMTGSIVNVDAGFTVW
As a reminder, the Km is the substrate concentration at which the rate is half of its maximum. In the case of B1, the Km in data set [4] stood at 30.5 mM; in [5], 30.2 mM; in [6] it was 22.4 mM; in data set [7], 31.9 mM; in [8], 1.3 mM; in data set [9] it was 31.9 mM. The Km in data set [10] is recorded as 20.4 mM.

The values are drawn from patent US7575910B2, “Method for producing L-fuculose and method for producing L-fucose” (priority 2004, dated 2009).
